In article PMC11233575, “Unlocking the function promiscuity of old yellow enzyme to catalyze asymmetric Morita-Baylis-Hillman reaction” (Nature Communications, 2024):

Assays:
[1] = substrate: O=Cc1ccc([N+](=O)[O-])cc1; assay: initial velocity of MBH adduct formation by HPLC, Michaelis-Menten fit; format: biochemical, Geobacillus kaustophilus; details: 5 mM 2-cyclopenten-1-one, PBS pH 10.0, 3% methanol, 25 °C
Text: (§1) initial velocity of MBH adduct formation by HPLC, Michaelis-Menten fit on GkOYE

[2] = substrate: O=C1C=CCC1; assay: as above; format: biochemical, Geobacillus kaustophilus; details: 4 mM 4-nitrobenzaldehyde, PBS pH 10.0, 3% methanol, 25 °C
Text: as §1

[3] = target: the molecule itself; assay: crystal structure; apo-GkOYE.8 at 15 mg/mL, hanging drop, 0.1 M glycine pH 9.0, 25% (w/v) polyethylene glycol 2000, 15% (w/v) glycerol, 20 °C; 3.11 Å
[4] = GkOYE.8, MBH reaction, no FMN, covalent intermediate at C26

B1: GkOYE.8 (GkOYE^Q102A/Y169F/R215A/R308A) (enzyme, Geobacillus kaustophilus)
chain: MNTMLFSPYTIRGLTLKNRIVMSPMCMYSCDTKDGAVRTWHKIHYPARAVGQVGLIIVEATGVTPQGRISERDLGIWSDDHIAGLRELVGLVKEHGAAIGIALAHAGRKSQVPGEIIAPSAVPFDDSSPTPKEMTKADIEETVQAFQNGARRAKEAGFDVIEIHAAHGFLINEFLSPLSNRRQDEYGGSPENRYRFLGEVIDAVREVWDGPLFVAISASDYHPDGLTAKDYVPYAKRMKEQGVDLVDVSSGAIVPARMNVYPGYQVPFAELIRREADIPTGAVGLITSGWQAEEILQNGRADLVFLGAELLRNPYWPYAAARELGAKISAPVQYERGWRF
notes: FMN-free (apo); Expressed from the plasmid pET28a-GkOYE.8; also called apo-GkOYE.8; source: E. coli BL21(DE3), purified (Strep-Tactin column; HisTrap HP column for crystallization)
[1]; GkOYE.8, MBH reaction, no FMN
  Km: 15.98 mM
  kcat: 0.000458 s⁻¹
  kcat/Km: 0.0278 M⁻¹ s⁻¹
[2]; [4]
  Km: 4.28 mM
  kcat: 0.000178 s⁻¹
  kcat/Km: 0.0417 M⁻¹ s⁻¹
[3]
  stoichiometry N: 2

B2: GkOYE (Geobacillus kaustophilus HTA426; Q102A/R215A/R308A/Y169W) (protein)
chain: MNTMLFSPYTIRGLTLKNRIVMSPMCMYSCDTKDGAVRTWHKIHYPARAVGQVGLIIVEATGVTPQGRISERDLGIWSDDHIAGLRELVGLVKEHGAAIGIALAHAGRKSQVPGEIIAPSAVPFDDSSPTPKEMTKADIEETVQAFQNGARRAKEAGFDVIEIHAAHGWLINEFLSPLSNRRQDEYGGSPENRYRFLGEVIDAVREVWDGPLFVAISASDYHPDGLTAKDYVPYAKRMKEQGVDLVDVSSGAIVPARMNVYPGYQVPFAELIRREADIPTGAVGLITSGWQAEEILQNGRADLVFLGAELLRNPYWPYAAARELGAKISAPVQYERGWRF
notes: recombinant, Strep-tagged, pET28a, E. coli BL21(DE3); Strep-Tactin purified; dimer in crystal
[1]; GkOYE.12, MBH reaction
  Km: 17.28 mM
  kcat: 0.000422 s⁻¹
  kcat/Km: 0.025 M⁻¹ s⁻¹
[2]; GkOYE.12, MBH reaction
  Km: 4.50 mM
  kcat: 0.000167 s⁻¹
  kcat/Km: 0.0361 M⁻¹ s⁻¹

B3: GkOYE (Geobacillus kaustophilus HTA426; G62W/Q102A/R215A/R308A/Y169F) (protein)
chain: MNTMLFSPYTIRGLTLKNRIVMSPMCMYSCDTKDGAVRTWHKIHYPARAVGQVGLIIVEATWVTPQGRISERDLGIWSDDHIAGLRELVGLVKEHGAAIGIALAHAGRKSQVPGEIIAPSAVPFDDSSPTPKEMTKADIEETVQAFQNGARRAKEAGFDVIEIHAAHGFLINEFLSPLSNRRQDEYGGSPENRYRFLGEVIDAVREVWDGPLFVAISASDYHPDGLTAKDYVPYAKRMKEQGVDLVDVSSGAIVPARMNVYPGYQVPFAELIRREADIPTGAVGLITSGWQAEEILQNGRADLVFLGAELLRNPYWPYAAARELGAKISAPVQYERGWRF
notes: as for B2
[1]; GkOYE.9, MBH reaction
  Km: 12.44 mM
  kcat: 0.000442 s⁻¹
  kcat/Km: 0.0361 M⁻¹ s⁻¹
[2]; GkOYE.9, MBH reaction
  Km: 2.00 mM
  kcat: 0.000181 s⁻¹
  kcat/Km: 0.0917 M⁻¹ s⁻¹

B4: GkOYE (Geobacillus kaustophilus HTA426; D247I/G62W/H167A/Q102A/R215A/R308A/Y169F) (protein)
chain: MNTMLFSPYTIRGLTLKNRIVMSPMCMYSCDTKDGAVRTWHKIHYPARAVGQVGLIIVEATWVTPQGRISERDLGIWSDDHIAGLRELVGLVKEHGAAIGIALAHAGRKSQVPGEIIAPSAVPFDDSSPTPKEMTKADIEETVQAFQNGARRAKEAGFDVIEIHAAAGFLINEFLSPLSNRRQDEYGGSPENRYRFLGEVIDAVREVWDGPLFVAISASDYHPDGLTAKDYVPYAKRMKEQGVDLVIVSSGAIVPARMNVYPGYQVPFAELIRREADIPTGAVGLITSGWQAEEILQNGRADLVFLGAELLRNPYWPYAAARELGAKISAPVQYERGWRF
notes: as for B2
[1]; GkOYE.11, MBH reaction
  Km: 11.22 mM
  kcat: 0.000478 s⁻¹
  kcat/Km: 0.0417 M⁻¹ s⁻¹
[2]; GkOYE.11, MBH reaction
  Km: 1.70 mM
  kcat: 0.00019 s⁻¹
  kcat/Km: 0.114 M⁻¹ s⁻¹

B5: GkOYE (Geobacillus kaustophilus HTA426; G62N/Q102A/R215A/R308A/Y169W) (protein)
chain: MNTMLFSPYTIRGLTLKNRIVMSPMCMYSCDTKDGAVRTWHKIHYPARAVGQVGLIIVEATNVTPQGRISERDLGIWSDDHIAGLRELVGLVKEHGAAIGIALAHAGRKSQVPGEIIAPSAVPFDDSSPTPKEMTKADIEETVQAFQNGARRAKEAGFDVIEIHAAHGWLINEFLSPLSNRRQDEYGGSPENRYRFLGEVIDAVREVWDGPLFVAISASDYHPDGLTAKDYVPYAKRMKEQGVDLVDVSSGAIVPARMNVYPGYQVPFAELIRREADIPTGAVGLITSGWQAEEILQNGRADLVFLGAELLRNPYWPYAAARELGAKISAPVQYERGWRF
notes: as for B2
[1]; GkOYE.13, MBH reaction
  Km: 12.10 mM
  kcat: 0.000461 s⁻¹
  kcat/Km: 0.0389 M⁻¹ s⁻¹
[2]; GkOYE.13, MBH reaction
  Km: 1.91 mM
  kcat: 0.000189 s⁻¹
  kcat/Km: 0.1 M⁻¹ s⁻¹
